The values that follow come from publication PMC5364132, “Anti-Biofilm Activity of a Self-Aggregating Peptide against Streptococcus mutans” (Frontiers in Microbiology, 2017).

The series concerns the molecule itself. Briefly: FTIR spectroscopy; peptides at 1 and 0.1 mg/ml in PBS, 8 μl dried as thin films on the ATR surface; spectra 1800-1500 cm^-1; peaks at 1621 and 1695 cm^-1 read as antiparallel β-sheet assembly.

B1: synthetic peptide P1 (peptide)
peptide: PARKARAATAATAATAATAATAAT
notes: 24-amino acid synthetic peptide designed with repeated motifs of the Ixodes tick antifreeze glycoprotein (IAFGP); Not the streptococcal adhesin P1 (AgI/II, PAc); also called antivirulence peptide P1; source: synthetic peptide (Genscript, >80% purity)
With B1, the binding result was “binds”.
